From patent US20240092841A1

Key:
Assay in all cases: co-IP with agarose-bound AvFc from A549 whole-cell lysate, mass spectrometry
[1] = biological target: Disintegrin and metalloproteinase domain-containing protein 17 (human) (UniProt P78536)
[2] = biological target: Solute carrier family 12 member 7 (human) (UniProt Q9Y666)
[3] = biological target: Integrin alpha-2 (human) (UniProt P17301)
[4] = biological target: Multidrug resistance-associated protein 1 (human) (UniProt P33527)
[5] = biological target: Metal transporter CNNM4 (human) (UniProt Q6P4Q7)
[6] = biological target: Mucin-5B (human) (UniProt Q9HC84)
[7] = biological target: Galectin-3-binding protein (human) (UniProt Q08380)
[8] = biological target: Cation-independent mannose-6-phosphate receptor (human) (UniProt P11717)
[9] = biological target: Laminin subunit beta-1 (human) (UniProt P07942)
Sequence of UniProt P07942 (P07942 22-1786 limits assumed): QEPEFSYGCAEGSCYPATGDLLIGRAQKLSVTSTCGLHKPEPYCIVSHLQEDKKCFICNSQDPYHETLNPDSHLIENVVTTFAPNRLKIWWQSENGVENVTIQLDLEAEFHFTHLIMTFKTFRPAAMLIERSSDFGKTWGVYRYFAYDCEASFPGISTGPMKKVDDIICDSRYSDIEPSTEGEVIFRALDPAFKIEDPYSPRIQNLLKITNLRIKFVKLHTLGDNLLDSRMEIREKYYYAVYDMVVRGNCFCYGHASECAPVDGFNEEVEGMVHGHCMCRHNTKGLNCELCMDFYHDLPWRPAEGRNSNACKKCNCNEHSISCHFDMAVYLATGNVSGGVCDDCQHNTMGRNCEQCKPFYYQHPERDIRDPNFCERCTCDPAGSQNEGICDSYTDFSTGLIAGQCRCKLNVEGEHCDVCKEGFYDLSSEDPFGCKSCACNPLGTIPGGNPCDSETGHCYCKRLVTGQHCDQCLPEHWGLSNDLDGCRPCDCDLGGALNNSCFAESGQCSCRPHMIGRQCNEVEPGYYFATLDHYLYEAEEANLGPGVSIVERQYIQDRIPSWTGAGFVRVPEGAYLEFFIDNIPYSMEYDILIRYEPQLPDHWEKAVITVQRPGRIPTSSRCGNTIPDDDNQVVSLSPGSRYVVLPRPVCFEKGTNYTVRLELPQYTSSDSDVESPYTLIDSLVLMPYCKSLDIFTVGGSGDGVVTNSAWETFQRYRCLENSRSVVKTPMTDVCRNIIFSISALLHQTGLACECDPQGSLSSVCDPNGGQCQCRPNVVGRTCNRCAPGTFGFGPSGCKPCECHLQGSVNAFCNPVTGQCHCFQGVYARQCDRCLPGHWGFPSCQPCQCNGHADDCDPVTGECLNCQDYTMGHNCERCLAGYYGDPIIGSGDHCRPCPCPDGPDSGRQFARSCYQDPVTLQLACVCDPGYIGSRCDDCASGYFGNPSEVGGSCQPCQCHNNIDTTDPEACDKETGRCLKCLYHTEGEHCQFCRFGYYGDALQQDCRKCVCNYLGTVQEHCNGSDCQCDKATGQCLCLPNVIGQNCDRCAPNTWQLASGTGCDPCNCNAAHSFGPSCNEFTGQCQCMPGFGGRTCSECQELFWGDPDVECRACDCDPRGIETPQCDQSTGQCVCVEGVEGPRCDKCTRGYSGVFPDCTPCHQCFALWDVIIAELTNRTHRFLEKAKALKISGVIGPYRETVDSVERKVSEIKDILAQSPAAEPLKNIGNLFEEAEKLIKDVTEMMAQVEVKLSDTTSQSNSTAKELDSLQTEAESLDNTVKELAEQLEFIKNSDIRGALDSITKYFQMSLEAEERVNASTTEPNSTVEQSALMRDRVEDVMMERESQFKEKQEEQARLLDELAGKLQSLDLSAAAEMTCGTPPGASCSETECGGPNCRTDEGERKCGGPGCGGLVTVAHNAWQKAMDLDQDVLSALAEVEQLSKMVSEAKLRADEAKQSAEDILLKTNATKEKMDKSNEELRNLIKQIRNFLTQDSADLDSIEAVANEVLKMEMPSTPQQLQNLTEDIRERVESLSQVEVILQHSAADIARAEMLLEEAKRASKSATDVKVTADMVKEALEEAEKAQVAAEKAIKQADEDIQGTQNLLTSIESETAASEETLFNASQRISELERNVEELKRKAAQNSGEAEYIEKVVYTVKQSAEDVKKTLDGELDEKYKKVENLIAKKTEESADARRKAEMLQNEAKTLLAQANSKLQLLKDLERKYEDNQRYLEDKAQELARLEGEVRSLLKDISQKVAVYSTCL

[10] = biological target: Transmembrane protein 2 (human) (UniProt Q9UHN6)
[11] = biological target: Exportin-1 (human) (UniProt O14980)
[12] = biological target: Insulin-like growth factor 1 receptor (human) (UniProt P08069)
[13] = biological target: Tropomyosin alpha-3 chain (human) (UniProt P06753)
Sequence of UniProt P06753 (P06753 other isoform, or with tags, fused parts or gaps limits assumed): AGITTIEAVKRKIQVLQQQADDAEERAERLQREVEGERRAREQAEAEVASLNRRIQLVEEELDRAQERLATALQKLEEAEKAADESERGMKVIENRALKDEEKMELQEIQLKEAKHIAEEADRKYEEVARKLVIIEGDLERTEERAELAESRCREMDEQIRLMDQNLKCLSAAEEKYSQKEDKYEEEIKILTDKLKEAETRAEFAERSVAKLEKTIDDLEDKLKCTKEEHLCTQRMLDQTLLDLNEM

[14] = biological target: Cell cycle control protein 50A (human) (UniProt Q9NV96)
[15] = biological target: T-complex protein 1 subunit theta (human) (UniProt P50990)
[16] = biological target: Disintegrin and metalloproteinase domain-containing protein 9 (human) (UniProt Q13443)
[17] = biological target: Integrin beta-5 (human) (UniProt P18084)
Sequence of UniProt P18084 (P18084 24-799 limits assumed): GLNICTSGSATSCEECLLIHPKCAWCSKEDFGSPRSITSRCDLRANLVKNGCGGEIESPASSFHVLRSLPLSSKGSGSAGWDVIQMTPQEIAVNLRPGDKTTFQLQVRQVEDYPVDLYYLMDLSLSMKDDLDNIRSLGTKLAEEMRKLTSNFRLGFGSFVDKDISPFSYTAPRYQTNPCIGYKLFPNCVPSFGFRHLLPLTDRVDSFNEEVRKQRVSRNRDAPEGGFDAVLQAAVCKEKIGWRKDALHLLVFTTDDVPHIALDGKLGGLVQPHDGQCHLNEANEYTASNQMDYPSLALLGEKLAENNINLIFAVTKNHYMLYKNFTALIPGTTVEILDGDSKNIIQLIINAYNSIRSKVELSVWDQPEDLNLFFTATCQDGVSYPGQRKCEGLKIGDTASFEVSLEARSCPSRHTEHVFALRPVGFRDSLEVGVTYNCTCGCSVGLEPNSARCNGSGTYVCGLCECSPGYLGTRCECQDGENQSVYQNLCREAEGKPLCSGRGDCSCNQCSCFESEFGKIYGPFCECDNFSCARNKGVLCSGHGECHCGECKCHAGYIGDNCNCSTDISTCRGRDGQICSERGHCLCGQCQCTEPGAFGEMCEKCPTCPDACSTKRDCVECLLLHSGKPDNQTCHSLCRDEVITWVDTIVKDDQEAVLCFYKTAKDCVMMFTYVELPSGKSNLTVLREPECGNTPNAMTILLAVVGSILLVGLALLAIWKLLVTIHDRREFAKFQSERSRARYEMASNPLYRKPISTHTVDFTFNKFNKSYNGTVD

[18] = biological target: Tetratricopeptide repeat protein 13 (human) (UniProt Q8NBP0)
Sequence of UniProt Q8NBP0 (Q8NBP0 whole entry): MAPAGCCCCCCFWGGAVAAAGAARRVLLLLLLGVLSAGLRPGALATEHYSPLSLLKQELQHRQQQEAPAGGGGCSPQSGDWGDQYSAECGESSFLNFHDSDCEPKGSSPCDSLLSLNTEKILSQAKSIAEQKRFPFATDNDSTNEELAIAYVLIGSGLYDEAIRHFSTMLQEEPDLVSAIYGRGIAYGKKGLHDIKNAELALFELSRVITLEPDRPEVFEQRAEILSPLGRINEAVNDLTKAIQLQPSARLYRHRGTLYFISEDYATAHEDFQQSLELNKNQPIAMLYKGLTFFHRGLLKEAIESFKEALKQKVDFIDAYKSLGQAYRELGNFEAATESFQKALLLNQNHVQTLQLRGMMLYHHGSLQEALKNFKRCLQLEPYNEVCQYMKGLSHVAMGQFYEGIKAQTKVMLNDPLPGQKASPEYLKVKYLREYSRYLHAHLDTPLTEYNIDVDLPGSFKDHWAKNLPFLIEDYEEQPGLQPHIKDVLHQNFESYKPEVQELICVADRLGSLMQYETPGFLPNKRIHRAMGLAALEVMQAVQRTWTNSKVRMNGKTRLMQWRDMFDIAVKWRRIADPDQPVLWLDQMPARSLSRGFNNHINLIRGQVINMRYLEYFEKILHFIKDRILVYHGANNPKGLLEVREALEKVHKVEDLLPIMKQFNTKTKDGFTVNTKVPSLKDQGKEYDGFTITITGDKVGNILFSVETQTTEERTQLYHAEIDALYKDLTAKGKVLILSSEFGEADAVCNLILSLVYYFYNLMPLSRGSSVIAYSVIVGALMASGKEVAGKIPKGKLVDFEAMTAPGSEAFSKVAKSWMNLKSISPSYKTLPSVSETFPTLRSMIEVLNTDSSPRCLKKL

[19] = biological target: Solute carrier family 2, facilitated glucose transporter member 1 (human) (UniProt P11166)
[20] = biological target: Mucin-5AC (human) (UniProt P98088)
[21] = biological target: Transferrin receptor protein 1 (human) (UniProt P02786)
[22] = biological target: Erlin-1 (human) (UniProt O75477)
Sequence of UniProt O75477 (O75477 whole entry): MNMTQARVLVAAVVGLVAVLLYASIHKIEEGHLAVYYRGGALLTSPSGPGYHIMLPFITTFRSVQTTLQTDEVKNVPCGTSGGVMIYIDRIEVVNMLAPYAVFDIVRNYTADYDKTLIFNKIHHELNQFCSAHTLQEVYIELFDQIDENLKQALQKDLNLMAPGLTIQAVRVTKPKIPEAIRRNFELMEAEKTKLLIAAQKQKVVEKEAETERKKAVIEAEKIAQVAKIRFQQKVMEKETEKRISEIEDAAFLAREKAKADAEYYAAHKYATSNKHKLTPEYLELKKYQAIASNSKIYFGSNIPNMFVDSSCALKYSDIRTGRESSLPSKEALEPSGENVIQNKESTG

[23] = biological target: Transmembrane protein 131 (human) (UniProt Q92545)
[24] = biological target: Neutral amino acid transporter B (0) (human) (UniProt Q15758)
[25] = biological target: Scavenger receptor class B member 1 (human) (UniProt Q8WTV0)
[26] = biological target: Transmembrane and TPR repeat-containing protein 3 (human) (UniProt Q6ZXV5)
[27] = biological target: Erlin-2 (human) (UniProt O94905)

Sequence of UniProt Q9Y666 (Q9Y666 whole entry): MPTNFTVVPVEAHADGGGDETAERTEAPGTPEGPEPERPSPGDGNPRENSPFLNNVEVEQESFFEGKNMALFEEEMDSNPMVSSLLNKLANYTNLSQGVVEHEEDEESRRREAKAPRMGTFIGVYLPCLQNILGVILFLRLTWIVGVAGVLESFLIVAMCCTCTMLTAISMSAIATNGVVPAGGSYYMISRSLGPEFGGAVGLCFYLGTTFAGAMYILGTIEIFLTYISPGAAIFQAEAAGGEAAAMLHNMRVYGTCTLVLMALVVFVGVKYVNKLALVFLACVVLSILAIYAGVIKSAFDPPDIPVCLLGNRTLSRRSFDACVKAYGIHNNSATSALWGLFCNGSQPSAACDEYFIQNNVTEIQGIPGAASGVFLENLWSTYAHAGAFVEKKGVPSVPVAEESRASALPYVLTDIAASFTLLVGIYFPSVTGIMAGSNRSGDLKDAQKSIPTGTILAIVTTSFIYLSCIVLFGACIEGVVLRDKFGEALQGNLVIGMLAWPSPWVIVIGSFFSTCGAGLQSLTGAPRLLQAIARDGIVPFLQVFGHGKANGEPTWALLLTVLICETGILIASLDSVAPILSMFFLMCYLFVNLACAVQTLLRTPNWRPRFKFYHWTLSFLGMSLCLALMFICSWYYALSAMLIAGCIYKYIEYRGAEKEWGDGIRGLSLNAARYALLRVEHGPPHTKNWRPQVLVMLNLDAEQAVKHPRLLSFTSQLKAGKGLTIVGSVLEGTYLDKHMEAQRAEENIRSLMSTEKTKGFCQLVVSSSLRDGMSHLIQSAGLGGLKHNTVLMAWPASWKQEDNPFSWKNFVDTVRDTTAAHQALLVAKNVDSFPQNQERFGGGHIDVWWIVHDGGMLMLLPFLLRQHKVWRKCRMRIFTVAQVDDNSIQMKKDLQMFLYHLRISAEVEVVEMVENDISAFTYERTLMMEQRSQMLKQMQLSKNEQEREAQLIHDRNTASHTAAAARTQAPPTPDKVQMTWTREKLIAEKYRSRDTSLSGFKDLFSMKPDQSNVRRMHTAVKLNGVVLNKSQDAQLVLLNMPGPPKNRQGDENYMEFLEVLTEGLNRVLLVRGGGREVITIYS

## Avaren-Fc (AvFc) (Fc fusion)
[1]
  Percentage of Total Spectra (%): 0.056%
[2]
  Percentage of Total Spectra (%): 0.021%
[3]
  Percentage of Total Spectra (%): 0.11%
[4]
  Percentage of Total Spectra (%): 0.07%
[5]
  Percentage of Total Spectra (%): 0.091%
[6]
  Percentage of Total Spectra (%): 0.14%
[7]
  Percentage of Total Spectra (%): 0.07%
[8]
  Percentage of Total Spectra (%): 0.2%
[9]
  Percentage of Total Spectra (%): 0.41%
[10]
  Percentage of Total Spectra (%): 0.11%
[11]
  Percentage of Total Spectra (%): 0.056%
[12]
  Percentage of Total Spectra (%): 0.091%
[13]
  Percentage of Total Spectra (%): 0.07%
[14]
  Percentage of Total Spectra (%): 0.021%
[15]
  Percentage of Total Spectra (%): 0.091%
[16]
  Percentage of Total Spectra (%): 0.11%
[17]
  Percentage of Total Spectra (%): 0.11%
[18]
  Percentage of Total Spectra (%): 0.13%
[19]
  Percentage of Total Spectra (%): 0.007%
[20]
  Percentage of Total Spectra (%): 0.21%
[21]
  Percentage of Total Spectra (%): 0.16%
[22]
  Percentage of Total Spectra (%): 0.11%
[23]
  Percentage of Total Spectra (%): 0.056%
[24]
  Percentage of Total Spectra (%): 0.014%
[25]
  Percentage of Total Spectra (%): 0.056%
[26]
  Percentage of Total Spectra (%): 0.11%
[27]
  Percentage of Total Spectra (%): 0.15%
